# Target: RNase E NTD D303R D346R (Escherichia coli, UniProt P21513 1-529, D303R;D346R)
# Assay: crystal structure (3.0 A); Mg2+, Zn2+; BLI: 25 mM HEPES pH 7.0, 150 mM NaCl, 100 mM KCl, 10 mM CaCl2, 0.5 mM TCEP; RNA immobilised on streptavidin sensors, protein 0-500 nM; temperature not stated
# Settings: protein: recombinant; tags: N-terminal His; chain copies: 4; hairpin, 3' single-stranded tail
binder,measurement,value
"GUUAUAUGCCUUCUUGGAGGUAUAUAACAAAGAC (structured_RNA, 5' monophosphate; 2'-O-methyl on A33 and C34 (ompD +82, +83)) [MicC-ompD fusion]",binding result,binds

# Source: PMC6202311, “Substrate Recognition and Autoinhibition in the Central Ribonuclease RNase E”
